According to patent publication US20240174767A1:

Target: β2AR wild type (wt) receptor (human) (UniProt P07550)
Experiment: cell-based or functional assay

MbNb80^cHopQ (designed binder)
apparent potency shift: IC50 of epinephrine for β2AR-wt alone divided by the IC50^high of epinephrine for β2AR-wt in the presence of MbNb80^cHopQ ([3H]-DHA competition): 2000 fold | apparent potency shift: IC50 of isoprotenerol for β2AR-wt divided by the IC50^high of isoprotenerol for β2AR-wt in the presence of MbNb80^cHopQ ([3H]-DHA competition): 2000 fold
